# Experimental data published in WO2019077951A1 (dated 2019).
# Target: T1, full-length MUC1 (amino acid sequence of SEQ ID NO: 27) (human (human cervical cancer cell line …, UniProt P15941 24-1255, limits assumed))
# T1 construct: Full-length protein from cell extract on a Western blot membrane
# Test: Western blotting
# T1 sequence (P15941 other isoform, or with tags, fused parts or gaps limits assumed): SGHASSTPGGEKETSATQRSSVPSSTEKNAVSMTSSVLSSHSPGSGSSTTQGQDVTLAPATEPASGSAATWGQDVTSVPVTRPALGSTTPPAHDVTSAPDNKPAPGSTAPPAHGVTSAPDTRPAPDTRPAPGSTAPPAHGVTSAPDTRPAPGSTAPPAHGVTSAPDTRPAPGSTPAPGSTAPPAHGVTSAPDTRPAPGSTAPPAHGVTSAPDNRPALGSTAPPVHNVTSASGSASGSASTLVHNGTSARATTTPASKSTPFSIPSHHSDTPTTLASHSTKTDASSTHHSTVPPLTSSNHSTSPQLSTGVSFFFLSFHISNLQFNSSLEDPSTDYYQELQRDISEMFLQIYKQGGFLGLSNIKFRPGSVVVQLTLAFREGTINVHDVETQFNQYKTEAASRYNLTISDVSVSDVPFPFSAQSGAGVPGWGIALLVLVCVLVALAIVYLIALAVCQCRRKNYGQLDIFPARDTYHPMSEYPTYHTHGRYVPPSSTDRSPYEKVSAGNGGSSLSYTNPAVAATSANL
binder,measurement,value
"anti-MUC1 monoclonal antibody (antibody, V domains shown, also called MUC1 antibody) VH: EVKLEESGGGLVQPGGSMKLSCVASGFSFSDYWMNWVRQSPDKGLEWISDIRLKSYNYATHYAESVKGRFTISRDDSKSGVYLQMNNLRAEDTGLYYCTFGNSFAYWGQGTLVTVSA VL: QAVVTQESALTTSPGETVTLTCRSSTGAVTTSNYANWVQEKPDHLFTGLIGGTNNRAPGVPARFSGSLIGDKAALTITGAQTEDEAIYFCALWYSNHWVFGGGTKLTVLG",binding result,binds
